This is an account of results in the supplement of paper PMC10567573.

Sequences and labels used below:
B1: NCK2 (parent)
chain: YVERKNSLKKGSLVKNLKDTLGLG
B2: TMEM106C (parent)
chain: TVPEILVHNIVIFMRTSVKISYIG
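Note: lentivirally expressed fusions sorted by FACS into six bins by GFP to DsRed ratio, PSI derived from sequencing read proportions per bin multiplied by bin number.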

The variants in one data set derive from B1. The experiment in a line: protein stability index of a GFP-peptide fusion (GPS, HEK-293T) (PSI 1-6); higher = more stable. The note with it: c terminus: a fixed tail appended.
Take YVERKNSLKKGSLVKNLKITLGLG [D19I]: the protein stability index is 2.01. On the same count and under the same terms, the same measure for YVERKNSLKKNSLVKNLKDTLGLG [G11N]: 2.4; for YVERKNSLKKGSLVKNLKDDLGLG [T20D]: 2.3.

Variants of B2 are the subject of a further data set. Described as above. The note with it: c terminus: a fixed tail appended.
As to TVAEILVHNIVIFMRTSVKISYIG [P3A], the protein stability index is 3.18.

For the variant TVGEILVHNIVIFMRTSVKISYIG [P3G], the protein stability index came out at 3.81. With TVHEILVHNIVIFMRTSVKISYIG [P3H], the protein stability index worked out at 2.52. Same read-out and setting: the same measure for TVLEILVHNIVIFMRTSVKISYIG [P3L]: 1.85; for TVQEILVHNIVIFMRTSVKISYIG [P3Q]: 2.68. As for TVSEILVHNIVIFMRTSVKISYIG [P3S], the protein stability index came out at 3.98.

With TVREILVHNIVIFMRTSVKISYIG [P3R], the protein stability index was determined as 3.41. The same measure, in the same setting: to TVNEILVHNIVIFMRTSVKISYIG [P3N] belongs 1.33; to TVKEILVHNIVIFMRTSVKISYIG [P3K], 3.27; to TVCEILVHNIVIFMRTSVKISYIG [P3C], 2.32. The same measure, in the same setting: the same measure for TVIEILVHNIVIFMRTSVKISYIG [P3I]: 1.79. Still for that read-out and setting: the same measure for WVPEILVHNIVIFMRTSVKISYIG [T1W]: 2.7; for SVPEILVHNIVIFMRTSVKISYIG [T1S]: 3.42. Regarding DVPEILVHNIVIFMRTSVKISYIG [T1D], the protein stability index was 1.51. On the same count and under the same terms, to MVPEILVHNIVIFMRTSVKISYIG [T1M] belongs 3.02. The same measure, in the same setting: the same measure for LVPEILVHNIVIFMRTSVKISYIG [T1L]: 2.03; for EVPEILVHNIVIFMRTSVKISYIG [T1E]: 2.4.

With IVPEILVHNIVIFMRTSVKISYIG [T1I], the protein stability index was 4.36. The same measure, in the same setting: to TEPEILVHNIVIFMRTSVKISYIG [V2E] belongs 2.47; to TIPEILVHNIVIFMRTSVKISYIG [V2I], 2.67. Still for that read-out and setting: to TDPEILVHNIVIFMRTSVKISYIG [V2D] belongs 2.5; to TFPEILVHNIVIFMRTSVKISYIG [V2F], 2.95.

On to TKPEILVHNIVIFMRTSVKISYIG [V2K], for which the protein stability index turned out to be 2.81. The same measure, in the same setting: the same measure for TSPEILVHNIVIFMRTSVKISYIG [V2S]: 2.63; for TCPEILVHNIVIFMRTSVKISYIG [V2C]: 2.31; for TYPEILVHNIVIFMRTSVKISYIG [V2Y]: 3.53. Same read-out and setting: to TLPEILVHNIVIFMRTSVKISYIG [V2L] belongs 3.28.

In the case of TWPEILVHNIVIFMRTSVKISYIG [V2W], the protein stability index came out at 2. Same read-out and setting: to THPEILVHNIVIFMRTSVKISYIG [V2H] belongs 2.77; to TPPEILVHNIVIFMRTSVKISYIG [V2P], 3.94. Still for that read-out and setting: to TGPEILVHNIVIFMRTSVKISYIG [V2G] belongs 2.98. The same measure, in the same setting: to TNPEILVHNIVIFMRTSVKISYIG [V2N] belongs 2.01; to TVPEILVHIIVIFMRTSVKISYIG [N9I], 2.82. As to TVPEILVHYIVIFMRTSVKISYIG [N9Y], the protein stability index came out at 2.44. With TVPEILVHEIVIFMRTSVKISYIG [N9E], the protein stability index is 2.96. Still for that read-out and setting: the same measure for TVPEILVHSIVIFMRTSVKISYIG [N9S]: 2.31; for TVPEILVHRIVIFMRTSVKISYIG [N9R]: 2.94. On the same count and under the same terms, the same measure for TVPEILVHWIVIFMRTSVKISYIG [N9W]: 3.74. On the same count and under the same terms, the same measure for TVPEILVHTIVIFMRTSVKISYIG [N9T]: 2.49. TVPEILVHGIVIFMRTSVKISYIG [N9G]: the protein stability index is 2.98. Still for that read-out and setting: the same measure for TVPEILVHFIVIFMRTSVKISYIG [N9F]: 2.06. Still for that read-out and setting: the same measure for TVPEILVHQIVIFMRTSVKISYIG [N9Q]: 2.95; for TVPEILVHHIVIFMRTSVKISYIG [N9H]: 2.15.

For the variant TVPEILVHAIVIFMRTSVKISYIG [N9A], the protein stability index came to 2.89. Same read-out and setting: the same measure for TVPEILVHPIVIFMRTSVKISYIG [N9P]: 3.7. The same measure, in the same setting: to TVPEILVHVIVIFMRTSVKISYIG [N9V] belongs 2.49.

In the case of TVPEILVHDIVIFMRTSVKISYIG [N9D], the protein stability index stood at 3.55. On the same count and under the same terms, the same measure for TVPEILVHKIVIFMRTSVKISYIG [N9K]: 2.02. On the same count and under the same terms, the same measure for TVPEILVHCIVIFMRTSVKISYIG [N9C]: 2.85; for TVPEILVHLIVIFMRTSVKISYIG [N9L]: 3.14; for TVPEILVHMIVIFMRTSVKISYIG [N9M]: 3.79. Same read-out and setting: the same measure for TVPEILVHNIFIFMRTSVKISYIG [V11F]: 4.1; for TVPEILVHNIEIFMRTSVKISYIG [V11E]: 3.64; for TVPEILVHNINIFMRTSVKISYIG [V11N]: 2.86. Take TVPEILVHNIQIFMRTSVKISYIG [V11Q]: the protein stability index worked out at 1.83. The same measure, in the same setting: the same measure for TVPEILVHNIMIFMRTSVKISYIG [V11M]: 2.77; for TVPEILVHNISIFMRTSVKISYIG [V11S]: 3.97. For TVPEILVHNIHIFMRTSVKISYIG [V11H], the protein stability index was found to be 3.13. Same read-out and setting: to TVPEILVHNIGIFMRTSVKISYIG [V11G] belongs 3.12; to TVPEILVHNITIFMRTSVKISYIG [V11T], 3.11.

With TVPEILVHNIDIFMRTSVKISYIG [V11D], the protein stability index was found to be 2.52. Still for that read-out and setting: the same measure for TVPEILVHNIAIFMRTSVKISYIG [V11A]: 4.26.

For TVPEILVHNIPIFMRTSVKISYIG [V11P], the protein stability index turned out to be 2.92. Same read-out and setting: the same measure for TVPEILVHNIRIFMRTSVKISYIG [V11R]: 2.22; for TVPEILVHNILIFMRTSVKISYIG [V11L]: 1.78; for TVPEILVHNIYIFMRTSVKISYIG [V11Y]: 2.44. For TVPEILVHNIWIFMRTSVKISYIG [V11W], the protein stability index is 2.85. Same read-out and setting: the same measure for TVPEILVHNICIFMRTSVKISYIG [V11C]: 3.91; for TVPEILVHNIVIAMRTSVKISYIG [F13A]: 3.07. On the same count and under the same terms, to TVPEIRVHNIVIFMRTSVKISYIG [L6R] belongs 4.09; to TVPEIQVHNIVIFMRTSVKISYIG [L6Q], 2.44; to TVPEIWVHNIVIFMRTSVKISYIG [L6W], 2.8.

For the variant TVPEISVHNIVIFMRTSVKISYIG [L6S], the protein stability index turned out to be 2.77. In the case of TVPEIMVHNIVIFMRTSVKISYIG [L6M], the protein stability index was determined as 2.78.

For the variant TVPEIEVHNIVIFMRTSVKISYIG [L6E], the protein stability index came out at 2.11. Same read-out and setting: the same measure for TVPEIVVHNIVIFMRTSVKISYIG [L6V]: 4.06; for TVPEIKVHNIVIFMRTSVKISYIG [L6K]: 2.5. Still for that read-out and setting: to TVPEIFVHNIVIFMRTSVKISYIG [L6F] belongs 2.25. The same measure, in the same setting: to TVPEIPVHNIVIFMRTSVKISYIG [L6P] belongs 2.63.

Consider TVPEICVHNIVIFMRTSVKISYIG [L6C], for which the protein stability index worked out at 4.05. Still for that read-out and setting: to TVPEIAVHNIVIFMRTSVKISYIG [L6A] belongs 3.67; to TVPEIIVHNIVIFMRTSVKISYIG [L6I], 2.59; to TVPEIGVHNIVIFMRTSVKISYIG [L6G], 3.13. Still for that read-out and setting: the same measure for TVPEINVHNIVIFMRTSVKISYIG [L6N]: 2.24; for TVPEIHVHNIVIFMRTSVKISYIG [L6H]: 3.88; for TVPEITVHNIVIFMRTSVKISYIG [L6T]: 2.83. The same measure, in the same setting: to TVPEIYVHNIVIFMRTSVKISYIG [L6Y] belongs 2.26; to TVPEILVHNIVTFMRTSVKISYIG [I12T], 2.07; to TVPEILVHNIVVFMRTSVKISYIG [I12V], 2.64. As for TVPEILVHNIVNFMRTSVKISYIG [I12N], the protein stability index was found to be 3.08. On the same count and under the same terms, the same measure for TVPEILVHNIVEFMRTSVKISYIG [I12E]: 3.69.
